The values that follow come from patent publication US20020081638.

This series has as its system free histones (mixture of H1, H3, H2B, H2A and H4; Boehringer Mannheim).

On to GST-SUV39H1(82-412) H320R, for which the “in vitro HMTase assay with free histones, activity against the unmutated product” value is listed as “the latter mutation (H320R) resulted in an hyperactive enzyme with approximately 20-fold increased activity”.
